Assay results: article PMC7185751 (Biochimica et Biophysica Acta. Proteins and Proteomics, 2014)
Where two headings read alike, the source gives them in different places. Values belong to the compound of their own block, whether it stands above or below them. Where a SMILES comes first, the peptide text is derived from it.

Experiments:
[1] = biological target: T1, α-chymotrypsin (Bos taurus, UniProt P00766); settings: from pH 8 to 3, chymotrypsin; cited from earlier work
[2] = system: histidine-57 in α-chymotrypsin; settings: cited from earlier work
[3] = 13C-NMR pH titration of free inhibitor; assay type: physicochemical; settings: carboxyl group, determined by 13C-NMR
[4] = biological target: T2, His57 (UniProt position 57, VVTAAHCGVTT); settings: cited from earlier work
[5] = biological target: T2, His57; test: NMR; settings: 25 °C; hemiketal complex with the glyoxal inhibitor Z-Ala-Ala-Phe-COCHO; cited from earlier work
[6] = biological target: T1, α-chymotrypsin; settings: from pH 7.2 to 3.2 or 10.2; cited from earlier work

Compound: O=C[C@H](Cc1ccccc1)NC(=O)c1ccccc1 [Bz-Phe-CHO]
fold increase in Ki [1]: 4 fold

Compound: CC(=O)N[C@@H](CC(C)C)C(=O)N[C@H](C=O)Cc1ccccc1 [Acetyl-Leu-Phe-CHO] (Ac-Leu-Phe-aldehyde)
histidine pKa in the complex with α-chymotrypsin [2]: 6.5

pKa [3]: 3.52 ± 0.03
Compound: CC(NC(=O)OCc1ccccc1)C(=O)NC(C)C(=O)NC(Cc1ccccc1)[13C](=O)O (stereo not drawn) [ZAAF-^13COOH]

Compound: alpha-chymotrypsin (Bos taurus (inferred; the article only says commercial alpha-chymotrypsin from Sigma))
pKa ([4]; complex with the aldehyde inhibitor Acetyl-Leu-Phe-CHO (hemiacetal)): 6.5
pKa ([4]; free enzyme): 6.7
pKa [5]: > 11

Compound: C[C@H](NC(=O)OCc1ccccc1)C(=O)N1CCC[C@H]1C(=O)N[C@@H](Cc1ccccc1)C(=O)C=O [ZAPF-COCHO]
change of hemiketal formation [6]: decreases

Compound: delta-chymotrypsin (Bos taurus (inferred))
pKa ([4]; free enzyme): 7.5

Compound: chymotrypsin (activation form not specified in the quoting sentence) (Bos taurus (inferred))
pKa ([4]; negatively charged tetrahedral adduct with peptidyl boronic acid inhibitors): > 10
